Measured values from patent US20220119534A1 (DRAGONFLY THERAPEUTICS, published 2022).
Substitutions are numbered along the chain they refer to. Names may count otherwise. “And” between values parts separate entries of the source, which are not always exact repeats. Equal values may be shown once. Blank lines part the entries; values can stand above or below the binder they belong to.

Columns and labels:
[1] = target: T1, mFc-hNKG2D (human, UniProt P26718 73-216); assay: SPR Biacore 8K 37 C; mFc-hNKG2D captured on anti-mFc chip, TriNKET as analyte; 1:1 kinetic fit; un-oxidized control
T1 construct: extracellular domain; Made in house (Dragonfly Tx); the order of tag and ECD follows the name mFc-hNKG2D; also called mFc-tagged human NKG2D; not shown: mouse Fc tag
T1 sequence (looked up): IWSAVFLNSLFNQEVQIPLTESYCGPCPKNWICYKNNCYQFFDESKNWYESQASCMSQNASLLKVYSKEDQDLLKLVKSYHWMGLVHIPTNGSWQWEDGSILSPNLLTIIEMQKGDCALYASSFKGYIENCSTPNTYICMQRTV

[2] = target: T2, mFc-cNKG2D (cynomolgus monkey, UniProt P61252 73-216); assay: SPR Biacore 37 C; mFc-tagged cyno NKG2D dimer, TriNKET as analyte; 1:1 kinetic fit; average of 4
T2 construct: extracellular domain; Made in house (Dragonfly Tx); also called recombinant cyno NKG2D extracellular domain (ECD); mFc-tagged cyno NKG2D dimer; not shown: mouse Fc tag
T2 sequence (looked up): T1 sequence (looked up) with D43N, T133I

[3] = target: T3, Human CD16a V158 (human, UniProt P08637 17-208, biotinylated); assay: SPR; sample after pH 5.0, 40 C, 2 weeks
T3 construct: Bought recombinant receptor; also called hCD16a (V158); hFcγRIIIa V158
T3 sequence (P08637 17-208 F176V limits assumed): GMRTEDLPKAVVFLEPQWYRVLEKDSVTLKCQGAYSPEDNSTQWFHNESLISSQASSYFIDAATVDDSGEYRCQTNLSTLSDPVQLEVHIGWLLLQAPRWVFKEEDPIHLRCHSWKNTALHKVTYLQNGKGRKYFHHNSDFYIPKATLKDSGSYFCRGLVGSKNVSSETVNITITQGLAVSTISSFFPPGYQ

[4] = target: T4, Human CLEC12A-His (human, UniProt Q5QGZ9 65-265); assay: SPR; sample after pH 5.0, 40 C, 2 weeks
T4 construct: Recombinant soluble protein made in house; also called hCLEC12A-His; hCLEC12A; not shown: His tag
T4 sequence: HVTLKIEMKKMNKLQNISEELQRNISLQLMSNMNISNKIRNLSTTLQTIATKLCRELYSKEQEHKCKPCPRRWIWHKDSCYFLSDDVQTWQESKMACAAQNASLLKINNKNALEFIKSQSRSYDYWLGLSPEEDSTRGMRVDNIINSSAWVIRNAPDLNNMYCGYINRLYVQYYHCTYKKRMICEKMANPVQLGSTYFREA

[5] = target: T5, mFc-hNKG2D (human, UniProt P26718 73-216); assay: SPR; sample after pH 5.0, 40 C, 2 weeks
T5 construct: extracellular domain; Recombinant mFc-tagged NKG2D dimer, made in house; also called human NKG2D; not shown: mouse Fc tag
T5 sequence (looked up): T1 sequence (looked up)

[6] = target: T6, human CLEC12A on cells (HL60, PL21, Ba/F3-hCLEC12A) (human, UniProt Q5QGZ9 1-265); assay: flow cytometry, 40 nM, MFI after 2 h 37 C relative to 2 h on ice, PL21 cells
T6 construct: Endogenous on the AML lines HL60 and PL21; brought into mouse Ba/F3 cells by retroviral transduction; The cell line stands under assay; also called CLL-1
T6 sequence: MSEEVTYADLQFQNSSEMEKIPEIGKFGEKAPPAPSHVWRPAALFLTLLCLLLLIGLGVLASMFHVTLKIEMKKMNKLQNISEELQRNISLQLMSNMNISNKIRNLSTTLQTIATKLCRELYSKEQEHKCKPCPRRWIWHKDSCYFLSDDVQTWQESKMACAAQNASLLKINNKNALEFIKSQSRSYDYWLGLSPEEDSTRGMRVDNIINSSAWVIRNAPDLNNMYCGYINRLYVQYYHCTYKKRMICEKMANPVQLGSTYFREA

[7] = target: T7, Human CLEC12A-His (recombinant, K244 WT) (human, UniProt Q5QGZ9 65-265); assay: SPR, two-state fit (ka1); control sample
T7 construct: Made in house (Dragonfly Tx); also called hCLEC12A; hCLEC12A-His; not shown: His tag
T7 sequence: T4 sequence

[8] = target: T8, Human CD16a V158 (FcγRIIIa V158) (human, UniProt P08637 17-208, biotinylated); assay: SPR; after forced oxidation
T8 construct: Bought recombinant receptor; also called hCD16aV; hFcγRIIIa V158
T8 sequence (P08637 17-208 F176V limits assumed): as the sequence (P08637 17-208 F176V limits assumed) above

[9] = target: T9, mFc-hNKG2D (recombinant mFc-tagged human NKG2D dimer) (human, UniProt P26718 73-216); assay: SPR; after forced oxidation
T9 construct: extracellular domain; Made in house; not shown: mouse Fc tag
T9 sequence (looked up): T1 sequence (looked up)

[10] = target: T10, recombinant human CLEC12A-His (human, UniProt Q5QGZ9 65-265); assay: SPR
T10 construct: also called hCLEC12A-His; hCLEC12A
T10 sequence: T4 sequence

[11] = target: T11, human CLEC12A-K244Q-His (human, UniProt Q5QGZ9 65-265); assay: SPR
T11 construct: Polymorphic variant; also called hCLEC12A-K244Q; CLEC12A (Q244)
T11 chain: T4 sequence with K180Q

[12] = target: T12, recombinant human CD32b (human, UniProt P31994 46-217, limits assumed, biotinylated); assay: SPR 25C, steady state
T12 construct: also called FcγRIIb
T12 sequence (looked up): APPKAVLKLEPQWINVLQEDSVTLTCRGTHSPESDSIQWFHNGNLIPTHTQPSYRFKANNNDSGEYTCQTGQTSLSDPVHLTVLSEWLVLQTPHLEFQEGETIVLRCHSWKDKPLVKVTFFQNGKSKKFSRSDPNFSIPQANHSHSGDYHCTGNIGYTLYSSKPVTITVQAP

B1: F3'-1602 TriNKET (bispecific antibody, human IgG1, kappa)
chain: QLQLQESGPGLVKPSETLSLTCTVSGFSLTNYGLHWIRQPPGKCLEWIGVIWSGGKTDYNPSLKSRVTISKDTSKNQFSLKLSSVQAADTAVYYCAKYDYDDSLDYWGQGTLVTVSSGGGGSGGGGSGGGGSGGGGSDIQMTQSPSSLSASVGDRVTITCHASQNINFWLSWYQQKPGKAPKLLIYEASNLHTGVPSRFSGSGSGTRFTLTISSLQPEDIATYYCQQSHSYPLTFGCGTKLEIKGSDKTHTCPPCPAPELLGGPSVFLFPPKPKDTLMISRTPEVTCVVVDVSHEDPEVKFNWYVDGVEVHNAKTKPREEQYNSTYRVVSVLTVLHQDWLNGKEYKCKVSNKALPAPIEKTISKAKGQPREPRVYTLPPCRDELTKNQVSLTCLVKGFYPSDIAVEWESNGQPENNYKTTPPVLVSDGSFTLYSKLTVDKSRWQQGNVFSCSVMHEALHNHYTQKSLSLSPG
heavy: EVQLVESGGGLVKPGGSLRLSCAASGFTFSSYSMNWVRQAPGKGLEWVSSISSSSSYIYYADSVKGRFTISRDNAKNSLYLQMNSLRAEDTAVYYCARGAPIGAAAGWFDPWGQGTLVTVSSASTKGPSVFPLAPSSKSTSGGTAALGCLVKDYFPEPVTVSWNSGALTSGVHTFPAVLQSSGLYSLSSVVTVPSSSLGTQTYICNVNHKPSNTKVDKKVEPKSCDKTHTCPPCPAPELLGGPSVFLFPPKPKDTLMISRTPEVTCVVVDVSHEDPEVKFNWYVDGVEVHNAKTKPREEQYNSTYRVVSVLTVLHQDWLNGKEYKCKVSNKALPAPIEKTISKAKGQPREPQVCTLPPSRDELTENQVSLTCLVKGFYPSDIAVEWESNGQPENNYKTTPPVLDSDGSFFLYSWLTVDKSRWQQGNVFSCSVMHEALHNHYTQKSLSLSPG
light: DIQMTQSPSSVSASVGDRVTITCRASQGISSWLAWYQQKPGKAPKLLIYAASSLQSGVPSRFSGSGSGTDFTLTISSLQPEDFATYYCQQGVSFPRTFGGGTKVEIKRTVAAPSVFIFPPSDEQLKSGTASVVCLLNNFYPREAKVQWKVDNALQSGNSQESVTEQDSKDSTYSLSSTLTLSKADYEKHKVYACEVTHQGLSSPVTKSFNRGEC
notes: Trispecific F3' format: CLEC12A scFv-Fc paired with NKG2D Fab-Fc; Stressed and control samples of the stability studies are the same molecule; also called AB0237
Kd [1]: 750 nM
koff [1]: 0.107 s⁻¹
kon [1]: 143000 M⁻¹ s⁻¹
koff [2]: 0.141 s⁻¹
kon [2]: 168000 M⁻¹ s⁻¹

B4: F3'-1602 TriNKET (other)
chain: B1 chain
heavy: B1 heavy
light: B1 light
notes: CLEC12A scFv-Fc, NKG2D A49MI Fab-Fc, human IgG1 Fc; also called AB0237
Kd [10]: 0.6 nM
koff [10]: 0.000496 s⁻¹
kon [10]: 826000 M⁻¹ s⁻¹
Kd [11]: 0.77 nM
koff [11]: 0.000436 s⁻¹
kon [11]: 565000 M⁻¹ s⁻¹
Kd [12]: 7200 nM and 6100 nM and 6900 nM

Further lines, results first:

Kd [3]: 192 nM
koff [3]: 0.0208 s⁻¹
kon [3]: 108000 M⁻¹ s⁻¹
Kd [4]: 1.65 nM
koff [4]: 0.0013 s⁻¹
kon [4]: 787000 M⁻¹ s⁻¹
Kd [5]: 574 nM
koff [5]: 0.12 s⁻¹
kon [5]: 210000 M⁻¹ s⁻¹
percent surface retention [6]: 101%
B2: AB0192 TriNKET (other)
chain: EVQLVESGGGVVQPGGSLRLSCAASGFTFNAFGMHWVRQAPGKCLEWVAFISSGSTSIYYANTVKGRFTISRDNSKNTLYLQMNSLRAEDTAVYYCARDGYPTGGAMDYWGQGTSVTVSSGGGGSGGGGSGGGGSGGGGSDIQMTQSPSSLSASVGDRVTITCKASQDIYNYLSWFQQKPGKAPKPLIYRANILVSGVPSRFSGSGSGQDYTFTISSLQPEDIATYYCLQFDAFPFTFGCGTKLEIKGSDKTHTCPPCPAPELLGGPSVFLFPPKPKDTLMISRTPEVTCVVVDVSHEDPEVKFNWYVDGVEVHNAKTKPREEQYNSTYRVVSVLTVLHQDWLNGKEYKCKVSNKALPAPIEKTISKAKGQPREPRVYTLPPCRDELTKNQVSLTCLVKGFYPSDIAVEWESNGQPENNYKTTPPVLVSDGSFTLYSKLTVDKSRWQQGNVFSCSVMHEALHNHYTQKSLSLSPG
heavy: B1 heavy
light: B1 light
notes: the condition stands under assay; also called AB0192 Lot AB0192-005

kon [7]: 1.01e+07 M⁻¹ s⁻¹
Kd [8]: 320 nM
koff [8]: 0.0277 s⁻¹
kon [8]: 86500 M⁻¹ s⁻¹
Kd [9]: 762 nM
koff [9]: 0.13 s⁻¹
kon [9]: 171000 M⁻¹ s⁻¹
B3: AB0089 TriNKET (bispecific antibody, human IgG1, kappa)
chain: B1 chain with S53V, K56A, K71V, Y98G, D101G, S103T, R207D, I220F
heavy: B1 heavy
light: B1 light
notes: F3' format heterodimer of three chains; human IgG1 Fc with EW-RVT and Y349C/S354C mutations; also called AB0089 Lot AB0089-002; CLEC12A TriNKET AB0089
